Measurements published in patent publication US20230287109A1 (INGENIA THERAPEUTICS, published 2023).

B1: PRO593, PEGylated with two 20 kDa linear PEG (Fc fusion)
heavy: EVQLVQSGAEVKKPGASVKVSCKASGYSFTSYWMNWVRQAPGQGLEWMGMIHPSDSETRLNQKFMDRVTMTRDTSTSTVYMELSSLRSEDTAVYYCARGLYGNSWGQGTLVTVSSASTKGPSVFPLAPSSKSTSGGTAALGCLVKDYFPEPVTVSWNSGALTSGVHTFPAVLQSSGLYSLSSVVTVPSSSLGTQTYICNVNHKPSNTKVDKKVEPKSSDKTHTSPPSPAPEAAGGPSVFLFPPKPKDTLMISRTPEVTCVVVDVSHEDPEVKFNWYVDGVEVHNAKTKPREEQYNSTYRVVSVLTVLAQDWLNGKEYKCKVSNKALPAPIEKTISKAKGQPREPQVYTLPPSRDELTKNQVSLTCLVKGFYPSDIAVEWESNGQPENNYKTTPPVLDSDGSFFLYSKLTVDKSRWQQGNVFSCSVMHEALHNHYTQKSLSLSPGKGGGGSGGGGSGGGGSGGGGSSDTGRPFVEMYSEIPEIIHMTEGRELVIPCRVTSPNITVTLKKFPLDTLIPDGKRIIWDSRKGFIISNATYKEIGLLTCEATVNGHLYKTNYLTHRQTNTIIDVVLSPSHGIELSVGEKLVLNCTARTELNVGIDFNWEYPSSKHQHKKLVNRDLKTQSGSEMKKFLSTLTIDGVTRSDQGLYTCAASSGLMTKKNSTFVRVHEKGGSSKCA
light: DIQMTQSPSSLSASVGDRVTITCRASQDIGISLNWYQQEPGKAIKRLIYATSSLDSGVPKRFSGSRSGTEYTLTISSLESEDFADYYCLQYASSPYTFGGGTKLEIKRTVAAPSVFIFPPSDEQLKSGTASVVCLLNNFYPREAKVQWKVDNALQSGNSQESVTEQDSKDSTYSLSSTLTLSKADYEKHKVYACEVTHQGLSSPVTKSFNRGES
modifications: chain 1 pos 676: Cys carrying 20 kDa linear PEG-maleimide, written C (two PEG per antibody, one on each heavy chain).
notes: All interchain disulfide bonds removed
B2: PRO593, PEGylated with two 40 kDa branched PEG (Fc fusion)
heavy: B1 heavy
light: B1 light
modifications: chain 1 pos 676: Cys carrying 40 kDa branched PEG-maleimide, written C (one PEG per heavy chain, two per antibody)

Target: T1, rabbit Tie2 (form not stated) (rabbit)
T1 construct: also called rabbit ortholog of Tie-2
Test: SPR, summary table, column Rabbit Tie2, Kd [M]

Binder | Kd
B1 | < 127 pM
B2 | < 130 pM
